Reference: patent US20210032299A1 (Eli Lilly, published 2021)
Starred links: 1 amine or outer side, 2 acyl side, 3 side chain; linkers in the order of their positions; H or OH if unused. Non-standard residues stand in square brackets, D forms with d. Groups on a side chain read outwards from the residue. No end group written: not given here. *: point of attachment. C20 diacid = O=C(O)CCCCCCCCCCCCCCCCCCC(=O)*; γGlu = O=C(O)[C@H](CCC(=O)[*:2])N[*:1]; 4Pal = N[C@@H](Cc1ccncc1)C(=O)O; αMeL = CC(C)C[C@](C)(N)C(=O)O; AEEA = NCCOCCOCC(=O)O; Aib = CC(C)(N)C(=O)O

T1: human glucose-dependent insulinotropic peptide receptor (human, UniProt P48546 22-466)
T1 sequence (looked up): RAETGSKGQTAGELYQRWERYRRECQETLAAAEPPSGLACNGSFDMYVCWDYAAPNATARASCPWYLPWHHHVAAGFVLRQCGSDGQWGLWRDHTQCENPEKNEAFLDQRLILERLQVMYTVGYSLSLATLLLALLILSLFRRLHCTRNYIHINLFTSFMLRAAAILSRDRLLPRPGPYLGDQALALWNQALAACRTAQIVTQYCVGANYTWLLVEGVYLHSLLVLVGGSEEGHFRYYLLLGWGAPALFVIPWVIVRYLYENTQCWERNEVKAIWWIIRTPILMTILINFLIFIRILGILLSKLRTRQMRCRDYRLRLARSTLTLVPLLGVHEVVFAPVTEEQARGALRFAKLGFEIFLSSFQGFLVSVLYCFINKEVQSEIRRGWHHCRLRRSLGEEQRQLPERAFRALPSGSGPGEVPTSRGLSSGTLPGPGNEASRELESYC


What was measured:
Test in all cases: cell-based or functional assay
human GLP-1 receptor = human GLP-1 receptor (human, UniProt P43220 24-463)
human glucagon receptor = human glucagon receptor (human, UniProt P47871 26-477)
Sequence of human glucagon receptor (P47871 26-477): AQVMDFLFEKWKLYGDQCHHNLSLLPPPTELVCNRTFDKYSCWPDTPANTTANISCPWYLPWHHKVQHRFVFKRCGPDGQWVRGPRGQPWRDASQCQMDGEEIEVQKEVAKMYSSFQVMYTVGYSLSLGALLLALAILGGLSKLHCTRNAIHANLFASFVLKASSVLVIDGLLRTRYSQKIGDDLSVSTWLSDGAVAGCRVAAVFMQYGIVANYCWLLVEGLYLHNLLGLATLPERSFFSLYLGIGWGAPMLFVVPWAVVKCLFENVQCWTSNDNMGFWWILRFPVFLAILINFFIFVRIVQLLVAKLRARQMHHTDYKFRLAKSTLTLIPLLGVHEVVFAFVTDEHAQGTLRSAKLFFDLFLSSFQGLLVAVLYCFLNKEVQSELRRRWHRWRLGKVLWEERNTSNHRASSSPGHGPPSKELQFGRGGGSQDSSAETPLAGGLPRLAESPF

[1] = molecular target: T1, human glucose-dependent insulinotropic …

Row | Binder | hGLP1R cAMP Rel EC50 (human GLP-1 receptor) | hGcgR cAMP Rel EC50 (human glucagon receptor) | hGIPR cAMP Rel EC50 [1]
1 | Y[Aib]EGTFISDYSI[αMeL]LDKK([AEEA-AEEA-γGlu-C20 diacid])HQ[Aib]DFVE[4Pal]LLEGGPSSGAPPPS-NH2 (N-terminus assumed; SMILES CC[C@H](C)[C@H](NC(=O)[C@H](Cc1ccccc1)NC(=O)[C@@H](NC(=O)CNC(=O)[C@H](CCC(=O)O)NC(=O)C(C)(C)NC(=O)[C@@H](N)Cc1ccc(O)cc1)[C@@H](C)O)C(=O)N[C@@H](CO)C(=O)N[C@@H](CC(=O)O)C(=O)N[C@@H](Cc1ccc(O)cc1)C(=O)N[C@@H](CO)C(=O)N[C@H](C(=O)N[C@@](C)(CC(C)C)C(=O)N[C@@H](CC(C)C)C(=O)N[C@@H](CC(=O)O)C(=O)N[C@@H](CCCCN)C(=O)N[C@@H](CCCCNC(=O)COCCOCCNC(=O)COCCOCCNC(=O)CC[C@H](NC(=O)CCCCCCCCCCCCCCCCCCC(=O)O)C(=O)O)C(=O)N[C@@H](Cc1c[nH]cn1)C(=O)N[C@@H](CCC(N)=O)C(=O)NC(C)(C)C(=O)N[C@@H](CC(=O)O)C(=O)N[C@@H](Cc1ccccc1)C(=O)N[C@H](C(=O)N[C@@H](CCC(=O)O)C(=O)N[C@@H](Cc1ccncc1)C(=O)N[C@@H](CC(C)C)C(=O)N[C@@H](CC(C)C)C(=O)N[C@@H](CCC(=O)O)C(=O)NCC(=O)NCC(=O)N1CCC[C@H]1C(=O)N[C@@H](CO)C(=O)N[C@@H](CO)C(=O)NCC(=O)N[C@@H](C)C(=O)N1CCC[C@H]1C(=O)N1CCC[C@H]1C(=O)N1CCC[C@H]1C(=O)N[C@@H](CO)C(N)=O)C(C)C)[C@@H](C)CC) [Example 47] | > 5000 nM | 757 nM | 0.0234 nM
2 | Y[Aib]EGTFISDYSI[αMeL]LDKK([AEEA-AEEA-γGlu-C20 diacid])HQ[Aib]DFVE[4Pal]LLEQGPSSGAPPPS-NH2 (N-terminus assumed; SMILES CC[C@H](C)[C@H](NC(=O)[C@H](Cc1ccccc1)NC(=O)[C@@H](NC(=O)CNC(=O)[C@H](CCC(=O)O)NC(=O)C(C)(C)NC(=O)[C@@H](N)Cc1ccc(O)cc1)[C@@H](C)O)C(=O)N[C@@H](CO)C(=O)N[C@@H](CC(=O)O)C(=O)N[C@@H](Cc1ccc(O)cc1)C(=O)N[C@@H](CO)C(=O)N[C@H](C(=O)N[C@@](C)(CC(C)C)C(=O)N[C@@H](CC(C)C)C(=O)N[C@@H](CC(=O)O)C(=O)N[C@@H](CCCCN)C(=O)N[C@@H](CCCCNC(=O)COCCOCCNC(=O)COCCOCCNC(=O)CC[C@H](NC(=O)CCCCCCCCCCCCCCCCCCC(=O)O)C(=O)O)C(=O)N[C@@H](Cc1c[nH]cn1)C(=O)N[C@@H](CCC(N)=O)C(=O)NC(C)(C)C(=O)N[C@@H](CC(=O)O)C(=O)N[C@@H](Cc1ccccc1)C(=O)N[C@H](C(=O)N[C@@H](CCC(=O)O)C(=O)N[C@@H](Cc1ccncc1)C(=O)N[C@@H](CC(C)C)C(=O)N[C@@H](CC(C)C)C(=O)N[C@@H](CCC(=O)O)C(=O)N[C@@H](CCC(N)=O)C(=O)NCC(=O)N1CCC[C@H]1C(=O)N[C@@H](CO)C(=O)N[C@@H](CO)C(=O)NCC(=O)N[C@@H](C)C(=O)N1CCC[C@H]1C(=O)N1CCC[C@H]1C(=O)N1CCC[C@H]1C(=O)N[C@@H](CO)C(N)=O)C(C)C)[C@@H](C)CC) [Example 46] | > 5000 nM | 863 nM | 0.0294 nM
